Reference: patent EP4223782A1 (dated 2023)
Each block holds one binder with its values, some of them ahead of it.

Tests used:
[1] = target: T1, TGFβR2(-1) frameshift variant (deletion of one adenine in the 10-adenine microsatellite) peptide on … (human); experiment: IFNγ ELISA after 16 h; transduced human CD4+ T cells with BSM cells pulsed with decreasing amounts of peptide; upper bound of the printed range; full-length, on cells
T1 peptide: VALMSAMTTSSSQKN

[2] = target: T1, TGFβR2(-1) frameshift variant (deletion …); experiment: IFNγ ELISA after 16 h; transduced human CD4+ T cells with BSM cells pulsed with decreasing amounts of peptide; lower bound of the printed range; full-length, on cells
[3] = target: TGFβR2(-1) peptide … presented on HLA-DRA/HLA-DRB1*04:01 (human); experiment: cell-based or functional assay

EC50 of peptide [1]: < 10 nM
EC50 of peptide [2]: > 1 nM
lowest peptide concentration recognized (IFNy ELISA, BSM cells loaded with different concentrations of peptide) [3]: 1 nM
B1: TCR1414_1 (TCR, V domains shown)
Valpha: KQEVTQIPAALSVPEGENLVLNCSFTDSAIYNLQWFRQDPGKGLTSLLLIQSSQREQTSGRLNASLDKSSGRSTLYIAASQPGDSATYLCAVKSGAGSYQLTFGKGTKLSVIP
Vbeta: NAGVMQNPRHLVRRRGQEARLRCSPMKGHSHVYWYRQLPEEGLKFMVYLQKENIIDESGMPKERFSAEFPKEGPSILRIQQVVRGDSAAYFCASSPFQETQYFGPGTRLLVL

EC50 of peptide [1]: < 10 nM
EC50 of peptide [2]: > 1 nM
lowest peptide concentration recognized (IFNy ELISA, BSM cells loaded with different concentrations of peptide) [3]: 1 nM
B2: TCR1414_2 (TCR, V domains shown)
Valpha: GIQVEQSPPDLILQEGANSTLRCNFSDSVNNLQWFHQNPWGQLINLFYIPSGTKQNGRLSATTVATERYSLLYISSSQTTDSGVYFCAAPSGNTPLVFGKGTRLSVIA
Vbeta: DVKVTQSSRYLVKRTGEKVFLECVQDMDHENMFWYRQDPGLGLRLIYFSYDVKMKEKGDIPEGYSVSREKKERFSLILESASTNQTSMYLCASRVSGANVLTFGAGSRLTVL
